The record followed here is article PMC8967979 (Frontiers in Immunology, 2022).

The target of this experiment is WH01 RBD (residues 333-530) (SARS-CoV-2 Wuhan-Hu-01 (WH01), UniProt P0DTC2). As to the kind of experiment: crystal structure. As to conditions: both partners purified.

B1: Nb22 (VHH)
VHH: QVQLVESGGNLVQPGGSLRLSCAASGGTLASFAVGWFRQAPGKEREGVSCIDVINRANYADSVKGRFTISRDSAKNTVYLQMNSLEPEDTAVYSCAAHFVPPGSRLRGCLVNELYNYWGQGTQVTVSS
With B1, the binding result is reported as “binds”.
